Experiment [1] has as its target full-length HmTSP-His (Hydra magnipapillata thrombospondin) (Hydra magnipapillata). The experiment can be described thus: non-reducing SDS-PAGE and immunoblot; HmTSP-His from lysates of transfected HEK293T cells, collected on Ni-NTA, eluted in non-reducing SDS sample buffer; 4-20% gradient gels; anti-penta-His blot; laminin chains and prestained markers as size references. For orientation: In western blotting, separated proteins are transferred to a membrane and probed.

The target in experiment [2] is NoHmTSP.V5, truncated HmTSP comprising the N-terminal domain plus the putative oligomerization region (aa 1-296) (Hydra magnipapillata). The experiment can be described thus: non-reducing SDS-PAGE and immunoblot; V5-tagged proteins from conditioned media of transfected COS7 cells, collected on Talon resin, boiled in SDS sample buffer without DTT; 7% SDS-polyacrylamide gels; V5 antibody blot.

Experiment [3] deals with HmTSPcc, 25aa synthetic peptide corresponding to HmTSP residues 249-273 (Hydra magnipapillata). The experiment can be described thus: AUC; sedimentation equilibrium; HmTSPcc 400 uM in PBS, 20 °C, 30,000-46,000 rpm; fitted to a single, ideal species model.

Where “and” joins values, the source holds several entries; their conditions need not be identical. Equal entries are not always repeated. Where only a bound is given, the exact number is not on record here.

As for “full-length HmTSP-His (Hydra magnipapillata thrombospondin) (natural protein)”, the stoichiometry N (as a rule, the number of molecules, sites or subunits per partner or assembly) in experiment [1] is over 4.

As for “NoHmTSP.V5, truncated HmTSP comprising the N-terminal domain plus the putative oligomerization region (aa 1-296) (domain or fragment)”, in experiment [2], the stoichiometry N is 5 and 4.

“HmTSPcc, 25aa synthetic peptide corresponding to HmTSP residues 249-273”: the stoichiometry N (x monomer mass) in experiment [3] is 2.98.

(Values after PMC6079037.)
